One test has as its target T1, GYDGDF (also: biotinylated (position not given here)).
T1 construct: also called biotinylated α2Ct peptide GYDGDF
T1 peptide: GYDGDF
Briefly: blot: antibody variant immobilized on nitrocellulose, biotinylated peptide bound, chemiluminescence.

The target of another test is T2, GDFYRA (also: biotinylated (position not given here)).
T2 construct: also called biotinylated α2Ct peptide GDFYRA
T2 peptide: GDFYRA
Described as above.

Test [1] deals with T3, human procollagen I isolated from human dermal fibroblasts (human, UniProt P02452 23-1464; P08123 23-1366).
T3 construct: Native triple-helical heterotrimer; also called native α2Ct present in procollagen I
Briefly: biosensor; scFv-procollagen I. The method, then: (§1) In brief, human procollagen I isolated from human dermal fibroblasts and synthetic α2Ct were immobilized on separate channels of a biosensor. Subsequently, the full-length AFA or its Fab fragments, generated by digestion with papain, were added at various concentrations to a sensor to record the association and the dissociation phases. Data from the AFA binding interactions and the Fab binding interactions were then used to calculate the KD values. In a separate set of experiments, the binding interactions of the scFv variant consisting of the VL and VH domains connected via a peptide linker were also tested using a biosensor. In these assays, the scFv-procollagen I binding interactions were studied.

Another test concerns the target T4, α2Ct fragment GYDGD (human).
T4 construct: One of the overlapping peptides spanning the human α2Ct
T4 peptide: GYDGD
Briefly: biosensor; AFA immobilized, peptide in solution. On the procedure:
(§2) Kinetics of the binding of the AFA to defined α2Ct epitopes. Employing a biosensor, we also analyzed the kinetics of the binding of the AFA with defined epitopes of the human α2Ct. For these assays we employed the AFA, control human IgG, and a set of overlapping peptides spanning the α2Ct (Table 3). In brief, the AFA and control human IgG were covalently immobilized on separate channels of a sensor chip. Subsequently, the binding of the α2Ct fragments to the immobilized antibodies was analyzed. Finally, the dissociation equilibrium constant (KD) values for each α2Ct fragment were calculated (Table 1).

Another test has as its target T5, α2Ct fragment DGDFY (human).
T5 construct: One of the overlapping peptides spanning the human α2Ct; also called A2_DGDFY
T5 peptide: DGDFY
Briefly: biosensor; AFA immobilized, peptide in solution. The method, then:
as §2

The next test addresses T6, α2Ct fragment DFGYD (human).
T6 construct: One of the overlapping peptides spanning the human α2Ct
T6 peptide: DFGYD
Briefly: biosensor; AFA immobilized, peptide in solution. On the procedure: as §2

For another test, the target named is T7, α2Ct fragment DFYRA (human).
T7 construct: One of the overlapping peptides spanning the human α2Ct
T7 peptide: DFYRA
In words: biosensor; AFA immobilized, peptide in solution. On the procedure:
as §2

Another test addresses T8, α2Ct fragment GYDFG (human).
T8 construct: One of the overlapping peptides spanning the human α2Ct
T8 peptide: GYDFG
Briefly: biosensor; AFA immobilized, peptide in solution. The method, then:
as §2

Test [2] addresses T9, synthetic full-length α2(I) C-telopeptide of human collagen I (α2Ct) (human).
T9 construct: also called synthetic α2Ct; full-length α2Ct
T9 peptide: GGGYDFGYDGDFYRA
In words: biosensor; synthetic α2Ct immobilized, antibody in solution. The method, then:
as §1

Test [3] concerns the target T3, human procollagen I isolated from human …. Briefly: biosensor; procollagen I immobilized, antibody in solution. The method, then:
as §1

For test [4], the target named is T9, synthetic full-length α2(I) …. In words: biosensor; table of α2Ct fragments binding to AFA. On the procedure:
as §2

Test [5] shares this target. Briefly: biosensor; synthetic α2Ct immobilized, Fab in solution. The method, then: as §1
Test [6] has as its target T3, human procollagen I isolated from human …. In words: biosensor; procollagen I immobilized, Fab in solution. On the procedure: as §1

By Kd is commonly meant a measure of binding affinity in units of concentration.

No end group written: not given here.

T3 sequence (P02452 23-1464, chain 1 of 2): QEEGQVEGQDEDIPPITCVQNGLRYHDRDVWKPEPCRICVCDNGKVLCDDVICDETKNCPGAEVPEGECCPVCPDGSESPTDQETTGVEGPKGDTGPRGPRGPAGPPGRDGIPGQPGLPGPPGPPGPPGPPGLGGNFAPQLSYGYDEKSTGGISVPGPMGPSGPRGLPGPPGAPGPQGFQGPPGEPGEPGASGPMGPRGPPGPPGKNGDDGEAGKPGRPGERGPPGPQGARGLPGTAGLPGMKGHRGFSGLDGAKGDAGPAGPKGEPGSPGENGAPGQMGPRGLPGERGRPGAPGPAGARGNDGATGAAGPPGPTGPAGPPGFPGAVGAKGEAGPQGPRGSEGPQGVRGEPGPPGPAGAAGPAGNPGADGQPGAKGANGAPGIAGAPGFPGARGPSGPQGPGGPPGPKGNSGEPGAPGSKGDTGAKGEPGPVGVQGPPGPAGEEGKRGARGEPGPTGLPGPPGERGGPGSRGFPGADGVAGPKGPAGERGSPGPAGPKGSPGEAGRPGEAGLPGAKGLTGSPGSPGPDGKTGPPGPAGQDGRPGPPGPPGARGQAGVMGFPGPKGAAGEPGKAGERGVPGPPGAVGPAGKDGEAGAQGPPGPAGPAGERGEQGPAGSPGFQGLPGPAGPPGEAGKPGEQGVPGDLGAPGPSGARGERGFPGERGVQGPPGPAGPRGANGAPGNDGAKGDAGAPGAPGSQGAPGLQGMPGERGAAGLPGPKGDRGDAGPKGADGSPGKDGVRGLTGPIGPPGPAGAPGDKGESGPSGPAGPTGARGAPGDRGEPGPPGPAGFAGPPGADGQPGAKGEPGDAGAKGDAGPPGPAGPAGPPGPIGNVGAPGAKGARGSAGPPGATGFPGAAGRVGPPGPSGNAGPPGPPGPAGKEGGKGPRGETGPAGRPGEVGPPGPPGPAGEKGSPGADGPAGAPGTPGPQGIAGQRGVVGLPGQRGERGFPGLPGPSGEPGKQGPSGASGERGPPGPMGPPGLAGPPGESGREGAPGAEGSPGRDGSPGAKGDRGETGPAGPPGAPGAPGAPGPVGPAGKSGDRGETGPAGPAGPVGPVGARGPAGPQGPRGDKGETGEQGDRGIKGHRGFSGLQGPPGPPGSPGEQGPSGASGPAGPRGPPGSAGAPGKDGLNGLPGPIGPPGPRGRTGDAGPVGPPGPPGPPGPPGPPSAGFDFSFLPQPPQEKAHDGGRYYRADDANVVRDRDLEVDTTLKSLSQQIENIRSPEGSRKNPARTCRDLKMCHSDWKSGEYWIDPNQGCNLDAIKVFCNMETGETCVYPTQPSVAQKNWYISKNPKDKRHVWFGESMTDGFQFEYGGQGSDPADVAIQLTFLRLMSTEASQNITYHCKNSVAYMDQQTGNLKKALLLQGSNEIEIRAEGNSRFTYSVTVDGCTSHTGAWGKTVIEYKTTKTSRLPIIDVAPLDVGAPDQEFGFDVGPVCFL
T3 sequence (P08123 23-1366, chain 2 of 2): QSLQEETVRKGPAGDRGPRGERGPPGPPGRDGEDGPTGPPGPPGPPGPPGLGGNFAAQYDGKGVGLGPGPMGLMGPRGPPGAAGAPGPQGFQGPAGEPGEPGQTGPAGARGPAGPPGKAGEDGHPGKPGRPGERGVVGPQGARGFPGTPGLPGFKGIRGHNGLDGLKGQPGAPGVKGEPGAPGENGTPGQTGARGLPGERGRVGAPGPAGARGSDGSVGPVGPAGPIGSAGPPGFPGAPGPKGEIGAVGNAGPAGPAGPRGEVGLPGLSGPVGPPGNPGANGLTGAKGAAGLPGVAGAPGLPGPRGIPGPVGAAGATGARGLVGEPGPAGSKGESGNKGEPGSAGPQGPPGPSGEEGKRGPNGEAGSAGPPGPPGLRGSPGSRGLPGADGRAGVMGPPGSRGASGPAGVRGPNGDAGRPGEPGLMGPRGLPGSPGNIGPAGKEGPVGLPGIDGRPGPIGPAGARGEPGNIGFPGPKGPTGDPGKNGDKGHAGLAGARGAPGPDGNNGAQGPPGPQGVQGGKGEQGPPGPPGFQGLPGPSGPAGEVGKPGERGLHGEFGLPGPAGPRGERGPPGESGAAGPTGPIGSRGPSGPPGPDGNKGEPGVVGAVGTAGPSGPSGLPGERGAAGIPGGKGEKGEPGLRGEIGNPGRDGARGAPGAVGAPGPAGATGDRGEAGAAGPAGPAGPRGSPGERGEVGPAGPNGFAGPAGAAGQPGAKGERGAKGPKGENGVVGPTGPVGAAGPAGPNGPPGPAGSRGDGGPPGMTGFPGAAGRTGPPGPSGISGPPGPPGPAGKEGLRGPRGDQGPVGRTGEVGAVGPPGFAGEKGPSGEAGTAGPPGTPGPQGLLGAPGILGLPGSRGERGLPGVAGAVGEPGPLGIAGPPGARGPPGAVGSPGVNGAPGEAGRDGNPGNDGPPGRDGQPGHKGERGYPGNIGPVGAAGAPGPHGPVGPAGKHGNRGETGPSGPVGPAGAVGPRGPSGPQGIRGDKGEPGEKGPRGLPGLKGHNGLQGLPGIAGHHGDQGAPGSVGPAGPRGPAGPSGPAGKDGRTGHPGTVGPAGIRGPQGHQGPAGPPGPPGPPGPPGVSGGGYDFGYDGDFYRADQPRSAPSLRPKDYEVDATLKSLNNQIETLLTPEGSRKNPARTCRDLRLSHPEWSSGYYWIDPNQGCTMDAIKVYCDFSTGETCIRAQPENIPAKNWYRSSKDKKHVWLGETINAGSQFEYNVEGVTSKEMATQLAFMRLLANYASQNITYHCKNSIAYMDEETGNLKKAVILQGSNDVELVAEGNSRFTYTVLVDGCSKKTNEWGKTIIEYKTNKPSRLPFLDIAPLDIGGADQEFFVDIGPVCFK

B1: chimeric human IgG-type AFA (antibody, V domains shown)
VH: AQIQLVQSGPELKKPGETVKISCKASGYTFTDYPLHWVKQAPGKGLQWMAWINTETGEPTYADDFTGRFAFSLETSASTAYLQINNLKNEDTATYFCVRGYYYYWGQGTTLSVSS
VL: DIVMSQSPSSLAVSAGEKVTMSCKSSQSLLNSRTRKNNLAWYQQKPGQSPKLLIYWASTRESGVPDRFTGSGSGTDFTLTISSVQAEDLAVYYCKQSYNLWTFGGGTKLEIKR
notes: also called chIgG; chlgG
In the case of B1, the binding result with GYDGDF and with GDFYRA was “binds” each time.

B2: scFv variant of the AFA consisting of the VL and VH domains connected via a peptide linker (scFv, V domains shown, not shown: small tags and cut ends)
VL: DIVMSQSPSSLAVSAGEKVTMSCKSSQSLLNSRTRKNNLAWYQQKPGQSPKLLIYWASTRESGVPDRFTGSGSGTDFTLTISSVQAEDLAVYYCKQSYNLWTFGGGTKLEIKR
V domain: AQIQLVQSGPELKKPGETVKISCKASGYTFTDYPLHWVKQAPGKGLQWMAWINTETGEPTYADDFTGRFAFSLETSASTAYLQINNLKNEDTATYFCVRGYYYYWGQGTTLSVSS
notes: The domain order VL-linker-VH follows the wording 'VL and VH domains connected via a peptide linker'; also called single chain antibody
In [1], B2 had a Kd of 0.075 µM.

B3: original mouse IgA-type AFA (antibody, V domains shown)
VH: AQIQLVQSGPELKKPGETVKISCKASGYTFTDYPLHWVKQAPGKGLQWMAWINTETGEPTYADDFTGRFAFSLETSASTAYLQINNLKNEDTATYFCVRGYYYYWGQGTTLSVSS
VL: DIVMSQSPSSLAVSAGEKVTMSCKSSQSLLNSRTRKNNLAWYQQKPGQSPKLLIYWASTRESGVPDRFTGSGSGTDFTLTISSVQAEDLAVYYCKQSYNLWTFGGGTKLEIKR
notes: Mouse IgA from a hybridoma, with heavy α chain and light κ chain; also called native mouse IgA-type AFA; original IgA-type anti-α2Ct antibody
On to B3, for which the binding result with GYDGDF and in the test with GDFYRA was “binds” each time.

B4: full-length anti-fibrotic antibody (AFA), monoclonal anti-collagen I antibody against the α2(I) C-telopeptide (antibody, V domains shown)
VH: AQIQLVQSGPELKKPGETVKISCKASGYTFTDYPLHWVKQAPGKGLQWMAWINTETGEPTYADDFTGRFAFSLETSASTAYLQINNLKNEDTATYFCVRGYYYYWGQGTTLSVSS
VL: DIVMSQSPSSLAVSAGEKVTMSCKSSQSLLNSRTRKNNLAWYQQKPGQSPKLLIYWASTRESGVPDRFTGSGSGTDFTLTISSVQAEDLAVYYCKQSYNLWTFGGGTKLEIKR
notes: The control was human IgG; also called full-length AFA; Full-length AFA antibody
Turning to B4, the Kd came to 604 µM with α2Ct fragment GYDGD; 22.2 µM with α2Ct fragment DGDFY; 6400 µM with α2Ct fragment DFGYD; 449 µM with α2Ct fragment DFYRA; 259 µM with α2Ct fragment GYDFG; 0.021 nM in test [2]. Moreover, the Kd in [3] is 0.000663 µM; in test [4], 0.021 nM.

B5: Fab fragment of the AFA (Fab, V domains shown)
VH: AQIQLVQSGPELKKPGETVKISCKASGYTFTDYPLHWVKQAPGKGLQWMAWINTETGEPTYADDFTGRFAFSLETSASTAYLQINNLKNEDTATYFCVRGYYYYWGQGTTLSVSS
VL: DIVMSQSPSSLAVSAGEKVTMSCKSSQSLLNSRTRKNNLAWYQQKPGQSPKLLIYWASTRESGVPDRFTGSGSGTDFTLTISSVQAEDLAVYYCKQSYNLWTFGGGTKLEIKR
notes: also called Fab AFA antibody; Fab fragments of the AFA
As to B5, the Kd stood at 0.057 µM in [5] and 0.268 µM in [6].
